The record followed here is the supplement of paper PMC9170038.

This data set concerns K4 kissing-loop RNA reporter. As to the kind of experiment: apparent KD of K4 kissing-loop reporter; higher = weaker reporter binding. The settings on record: Eterna round: R107. As for the experimental part:
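RNA-MaP round R107: designed RNA switches with theophylline, tryptophan, arginine or FMN aptamers are transcribed on-chip within common flanks. They are titrated with a labelled K4 kissing-loop RNA reporter in RNA-MaP buffer (100 mM Tris pH 7.5, 80 mM KCl, 4 mM MgCl2), without ligand or with the indicated ligand. Median apparent KD per design.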

Where [1] appears, read: input ligand: theophylline 20 uM.
[2] abbreviates: input ligand: tryptophan 2.4 mM.
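Further: bound reporter read as fluorescence of individual clusters on recovered sequencing chips by microscopy, with normalized cluster intensities fitted with a binding model.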

For “CAUACUUGCCGACCGCGGCACGCUAGUGAUACCAGUAACACCGUCUACCCUUGGCAGCACGAGAGAGUGAUGUUUUCAGCAGCCA [theeternabot_sameState_KL_Theo_A_3]”, the “apparent KD of K4 kissing-loop reporter” value is, setting by setting: (input ligand: FMN 200 uM) 1030 nM; (input ligand: arginine 13.2 mM) 722 nM; (input ligand: none) 982 nM; under setting [1], 736 nM; under setting [2], 857 nM.

For the sequence “AGCCUAGGAGUCAUUUCCUGCCCGUACGAUACCAGCAUUACCAGUUGCCCUUGGCAGCGUUAUAAGGCCAGUGAUGUUGGCCACU [theeternabot_sameState_KL_Theo_A_22]”, the “apparent KD of K4 kissing-loop reporter” value is, setting by setting: (input ligand: FMN 200 uM) 168 nM; (input ligand: arginine 13.2 mM) 175 nM; (input ligand: none) 185 nM; under setting [1], 197 nM; under setting [2], 167 nM.

Turning to “GCUAGCAUGGCAGGAUAUAGCUAUAGGAGUGAUGUUCCUUGGUAGGUGAGUGAUGUUCACUACCAACUAGAAGGGCCAUGCUAGC”, the “apparent KD of K4 kissing-loop reporter” value came out at 148 nM (input ligand: FMN 200 uM); 116 nM (input ligand: arginine 13.2 mM); 125 nM (input ligand: none); 121 nM under setting [1]; 135 nM under setting [2].

On to “GCGCGCGGCGGAGGAUAUAGCCGGUGGUCCGGGAAAGUGAGUGAUGUUCGCGGAGUUCUGGAUAUGUUAGAAGGCCGCCGCGCGC [qwertyuiopasdfghjklzxcvbnm]”, for which the “apparent KD of K4 kissing-loop reporter” value reads like this: (input ligand: FMN 200 uM) 1010 nM; (input ligand: arginine 13.2 mM) 857 nM; (input ligand: none) 1060 nM; under setting [1], 700 nM; under setting [2], 718 nM.

For the sequence “GAUUGUGAUGGAAACAUCGCAAUCUCUGAAGGAGCGCGUGAAAACGCAGGUAGGUCGCAGGACGACAAAGACAGUGAUGUUGUCG [Ex Arginine A K4 2]”, the “apparent KD of K4 kissing-loop reporter” value was 446 nM (input ligand: FMN 200 uM); 424 nM (input ligand: arginine 13.2 mM); 554 nM (input ligand: none); 504 nM under setting [1]; 416 nM under setting [2].

With “AAUUAGCCGUAAGAAUAGUGAUGUUAUUCACGAGGACCGGUACGGCCGCCACUCGAUAUUGGAAUAUUGAAUUUUUUAUUCUAAA [JR_SSTryptoA_Sub009]”, the “apparent KD of K4 kissing-loop reporter” value was found to be 524 nM (input ligand: FMN 200 uM); 474 nM (input ligand: arginine 13.2 mM); 552 nM (input ligand: none); 577 nM under setting [1]; 291 nM under setting [2].

Regarding “AGAGUUAUAUGAGGAUAUGAGAUAGUUAAUGAGUGAGUUAUAGUGUAGUUUGUUUAGUGAUGUUAUUUAGAAGGCGUGAGUGAUG [ljjlumullin]”, the “apparent KD of K4 kissing-loop reporter” value was 140 nM (input ligand: FMN 200 uM); 89.4 nM (input ligand: arginine 13.2 mM); 122 nM (input ligand: none); 133 nM under setting [1]; 88.8 nM under setting [2].

With “GUCCUGAGUGAUGUUCGGGUCGUUCGGGAAGGAGCGCCCGCAAGGGCAGGUAGGUCGCCCGGAUCUCUCAGGUAACUGAGAGACC [#2 Same State - Arginine A Attempt #29 (HarryS)]”, the “apparent KD of K4 kissing-loop reporter” value is, setting by setting: (input ligand: FMN 200 uM) 563 nM; (input ligand: arginine 13.2 mM) 303 nM; (input ligand: none) 448 nM; under setting [1], 554 nM; under setting [2], 383 nM.

As for “GCAACAUUGGGAGGAUAUCAUUCUGAGUGAUGUUCAGGGUUCAGCUAACGAAAGUUAGUUGUACCAUGAGAAGGCCUAAUGUUGC [Omei KL FMN B SS A v2]”, the “apparent KD of K4 kissing-loop reporter” value (input ligand: FMN 200 uM) amounted to 287 nM; the “apparent KD of K4 kissing-loop reporter” value (input ligand: arginine 13.2 mM) was determined as 769 nM; the “apparent KD of K4 kissing-loop reporter” value (input ligand: none) stood at 964 nM; the “apparent KD of K4 kissing-loop reporter” value under setting [1] came to 867 nM; the “apparent KD of K4 kissing-loop reporter” value under setting [2] was found to be 961 nM.

As to “AAUAGCCGUACUAGUGAUGUUAGUGUGGAUACCAGUUCAUGGACGAACCCUUGGCAGCCAUCAAAUAUAUAUGAGGGAUCAUCAC [theeternabot_exclusion_KL_Theo_A_47]”, the “apparent KD of K4 kissing-loop reporter” value runs as follows: (input ligand: FMN 200 uM) 295 nM; (input ligand: arginine 13.2 mM) 268 nM; (input ligand: none) 309 nM; under setting [1], 410 nM; under setting [2], 320 nM.

Take “UCUAUAGUUAGAGGAUAUUGAAUUAGAGUGAUGUUCUAUAGAAGACCAGUGAUGUUGGAUAGUAUACAAGAAGGCUGAUCUAUAG [Same State FMN B GF 1]”: the “apparent KD of K4 kissing-loop reporter” value turned out to be 208 nM (input ligand: FMN 200 uM); 665 nM (input ligand: arginine 13.2 mM); 451 nM (input ligand: none); 883 nM under setting [1]; 499 nM under setting [2].

In the case of “ACUGGAAACAUCACGUAUCCAAAACUGGAUACCAGCUCGGAAACGAGCCCUUGGCAGCCAGAACUUGCAGUGAUGUUGCAAGUAA [Design9]”, the “apparent KD of K4 kissing-loop reporter” value was 386 nM (input ligand: FMN 200 uM); 323 nM (input ligand: arginine 13.2 mM); 384 nM (input ligand: none); 392 nM under setting [1]; 398 nM under setting [2].

“GGAUAGGACAUAGGAUAUGGUAGUGAUGUUACCAAACUGGUUAAACAUGUCAGAAAACUGGCAUGACCAGAAGGGUGUCCUAUCG [FmnBX 27 U11+G75]”: the “apparent KD of K4 kissing-loop reporter” value was determined as 73 nM (input ligand: FMN 200 uM); 54.2 nM (input ligand: arginine 13.2 mM); 61.8 nM (input ligand: none); 45.9 nM under setting [1]; 64.3 nM under setting [2].

For the sequence “UUUGGCCACAGAGAUACCAGUCAUAUCGCUCUGGAGUGAUGUUCCGGAACAUGCGGAGAAGACCCUUGGCAGCUCAUGACGGUAA [Exclusion Theophylline B GF 2]”, the “apparent KD of K4 kissing-loop reporter” value stood at 232 nM (input ligand: FMN 200 uM); 194 nM (input ligand: arginine 13.2 mM); 196 nM (input ligand: none); 201 nM under setting [1]; 254 nM under setting [2].

In the case of “UGUCAUUGGUCGGCCGCCACUAGACGGACAUAAGUCUGUCAAUAAAGAGUGAUGUUCUUAAAUAAUAGGACCGGGACCGAUGACU [TrypBS 28 #SwitchBubble #StaticStem]”, the “apparent KD of K4 kissing-loop reporter” value by setting is: (input ligand: FMN 200 uM) 527 nM; (input ligand: arginine 13.2 mM) 458 nM; (input ligand: none) 451 nM; under setting [1], 503 nM; under setting [2], 201 nM.

With “UGGGAUGUUAAAGGAUAUAGAAAGUGAUAUUAGAAAGUGAGUGAUGUUGAUGUAGGUGAUGAUAUGUUAGAAGGUUAACAAAACG [abcde]”, the “apparent KD of K4 kissing-loop reporter” value turned out to be 411 nM (input ligand: FMN 200 uM); 219 nM (input ligand: arginine 13.2 mM); 334 nM (input ligand: none); 303 nM under setting [1]; 292 nM under setting [2].

Turning to “UUAGGGAUCUCGGCCGCCACUCGUGGGAAAUGGGCCUCAGGGAUAUAGUGAUGUUAUGUAAAGAAGAGGACCGGGAGAAGGAAGG [ExTryptoB.Di]”, the “apparent KD of K4 kissing-loop reporter” value runs as follows: (input ligand: FMN 200 uM) 451 nM; (input ligand: arginine 13.2 mM) 364 nM; (input ligand: none) 476 nM; under setting [2], 155 nM.
